Reference: publication PMC7948739 (The Journal of Biological Chemistry, 2020)

What was measured:
[1] = target: the molecule itself; assay: AUC; sedimentation velocity, DEC-205 ECD 0.2 mg ml^-1, TBS pH 8.0, 150 mM NaCl, 20 °C, 37,000 RPM
[2] = target: the molecule itself; assay: AUC; sedimentation velocity, DEC-205 ECD 0.2 mg ml^-1, BIS-TRIS buffer pH 6.0, 150 mM NaCl, 20 °C, 37,000 RPM
[3] = target: the molecule itself; assay: SEC-MALS; DEC-205 ECD, 50 ul at 1 mg ml^-1, Superdex 200 5/150, TBS (10 mM Tris-HCl pH 8.0, 150 mM NaCl)

B1: soluble DEC-205 ectodomain (ECD), residues 1-1664 (domain or fragment, human, UniProt O60449-1 28-1664, looked up)
chain: SGRAANDPFTIVHGNTGKCIKPVYGWIVADDCDETEDKLWKWVSQHRLFHLHSQKCLGLDITKSVNELRMFSCDSSAMLWWKCEHHSLYGAARYRLALKDGHGTAISNASDVWKKGGSEESLCDQPYHEIYTRDGNSYGRPCEFPFLIDGTWHHDCILDEDHSGPWCATTLNYEYDRKWGICLKPENGCEDNWEKNEQFGSCYQFNTQTALSWKEAYVSCQNQGADLLSINSAAELTYLKEKEGIAKIFWIGLNQLYSARGWEWSDHKPLNFLNWDPDRPSAPTIGGSSCARMDAESGLWQSFSCEAQLPYVCRKPLNNTVELTDVWTYSDTRCDAGWLPNNGFCYLLVNESNSWDKAHAKCKAFSSDLISIHSLADVEVVVTKLHNEDIKEEVWIGLKNINIPTLFQWSDGTEVTLTYWDENEPNVPYNKTPNCVSYLGELGQWKVQSCEEKLKYVCKRKGEKLNDASSDKMCPPDEGWKRHGETCYKIYEDEVPFGTNCNLTITSRFEQEYLNDLMKKYDKSLRKYFWTGLRDVDSCGEYNWATVGGRRRAVTFSNWNFLEPASPGGCVAMSTGKSVGKWEVKDCRSFKALSICKKMSGPLGPEEASPKPDDPCPEGWQSFPASLSCYKVFHAERIVRKRNWEEAERFCQALGAHLSSFSHVDEIKEFLHFLTDQFSGQHWLWIGLNKRSPDLQGSWQWSDRTPVSTIIMPNEFQQDYDIRDCAAVKVFHRPWRRGWHFYDDREFIYLRPFACDTKLEWVCQIPKGRTPKTPDWYNPDRAGIHGPPLIIEGSEYWFVADLHLNYEEAVLYCASNHSFLATITSFVGLKAIKNKIANISGDGQKWWIRISEWPIDDHFTYSRYPWHRFPVTFGEECLYMSAKTWLIDLGKPTDCSTKLPFICEKYNVSSLEKYSPDSAAKVQCSEQWIPFQNKCFLKIKPVSLTFSQASDTCHSYGGTLPSVLSQIEQDFITSLLPDMEATLWIGLRWTAYEKINKWTDNRELTYSNFHPLLVSGRLRIPENFFEEESRYHCALILNLQKSPFTGTWNFTSCSERHFVSLCQKYSEVKSRQTLQNASETVKYLNNLYKIIPKTLTWHSAKRECLKSNMQLVSITDPYQQAFLSVQALLHNSSLWIGLFSQDDELNFGWSDGKRLHFSRWAETNGQLEDCVVLDTDGFWKTVDCNDNQPGAICYYSGNETEKEVKPVDSVKCPSPVLNTPWIPFQNCCYNFIITKNRHMATTQDEVHTKCQKLNPKSHILSIRDEKENNFVLEQLLYFNYMASWVMLGITYRNKSLMWFDKTPLSYTHWRAGRPTIKNEKFLAGLSTDGFWDIQTFKVIEEAVYFHQHSILACKIEMVDYKEEYNTTLPQFMPYEDGIYSVIQKKVTWYEALNMCSQSGGHLASVHNQNGQLFLEDIVKRDGFPLWVGLSSHDGSESSFEWSDGSTFDYIPWKGQTSPGNCVLLDPKGTWKHEKCNSVKDGAICYKPTKSKKLSRLTYSSRCPAAKENGSRWIQYKGHCYKSDQALHSFSEAKKLCSKHDHSATIVSIKDEDENKFVSRLMRENNNITMRVWLGLSQHSVDQSWSWLDGSEVTFVKWENKSKSGVGRCSMLIASNETWKKVECEHGFGRVVCKVPLG
notes: signal peptide in the construct; Monomer at pH 6.0, tetramer at pH 8.0; In both reconstructions only R30 to E1383 (CysR to CTLD8) could be built; CTLD9 and CTLD10 are invisible; also called CD205; source: HEK293S, transient transfection, secreted, purified (FLAG resin, size exclusion)
[1]
  stoichiometry N: 6
[2]
  stoichiometry N: 2
[3]
  stoichiometry N: 4
